# T1: GST-TDRD3 UBA (UniProt Q9H7E2 193-233)
# T1 chain: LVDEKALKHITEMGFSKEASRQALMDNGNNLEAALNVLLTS
# Tests used:
# Experiment in all cases: EMSA
# [1] = molecular target: GST-TDRD3 Tudor (UniProt Q9H7E2 555-615)
# [2] = molecular target: T1, GST-TDRD3 UBA
# [3] = molecular target: TDRD3 E691K (UniProt A0ACI8Q7A3 1-93+Q9H7E2:1-651, E598K;internal_change)
binder,measurement,setting,value
CCTCGCAAACTACTTAGATGTCATCCGCGAGC (ssDNA) [ssDNA probe (R-loop forward oligo)],binding result,[1],no binding
same,binding result,[2],no binding
same,binding result,[3],binds

# Reference: PMC8421139
